Consider 21 sequences from the DeepSol protein solubility set.

This data set is described as follows: soluble on expression in E. coli; label from the status in PepcDB or PDB records.
On to “RNVDAALFGMISLYAQTKVIDTIIYGSDAGSKASIITAHPDEIAGRIIRELDRSATILPGKGAYSGRETSVVLCTVRKSEFARLKRIIHETDENAFVMVTETTEVIGLGFKDFSDAVQ”, for which the “soluble on expression in E. coli” value is recorded as “not soluble”.

Turning to “MPGVEPYEPLQLMGRDVYIREGCVGCHSQQVRTLQAEVQRYGPYSVAGESVFDHPFLWGSKRTGPDLARVGERYSDEWHRIHLRDPRAVVPESNMPAYPWLQHADLTGQNVAQRMQALRRLGVPYTDEAIAAAPAAIAGKTEEDALVAYLQALG”, the “soluble on expression in E. coli” value is recorded as “not soluble”.

Turning to “MRTVIFDLDGTLADTSGDLLAAANHCFRDMGLGDVLVPGQDAGIALRGGRMMLTRGLERVGAYDAATVERYYPVLLEAYRGAIDHHSFLYPGAMDAVEELRRAGYGVGICTNKPEALADLLLQRLGVRDAFAALIGADTLPVRKPDPEPLRAAARAAGGDPAACVLVGDSDTDRNTARAAGVPSILVTFGPSGDDMAALEPEALLERFEDLPHVVTRLIG”, the “soluble on expression in E. coli” value is on record as “not soluble”.

Take “QIAPLFWLENTIEKVEGMRPYTPLEMAGREVYIREGCYVCHSQMIRPMRDEVERYGHYSLAAESMYDHPFQWGSKRTGPDLARVGGRYSDDWHVDHMRDPQSVVPESVMPKYGYLERTMIDGKYIGDLMAANAIVGVPYTDEMIEAAQADFAAQADPDSDYDGLLERYGDKVNVRNFDGQPGVSEADALIAYLQMLGT”: the “soluble on expression in E. coli” value is reported as “not soluble”.

As for “SLMKITRIEAIPYAIPYSRPLKFASGEVSTAEHVLVRIHTDAGICGVADTPPRPYTYGETQDSIVSVVTKVFAPQLIGMDPMDRSKVQQLLGRTVNNPTAKGALDIALWDVIGISLGTPVHKLLGGFSDSMRVSHMLGFKAAAELLEEALRFRETYGIDTFKLKVGRRPLSLDVEACHVLREGLGADTEIYLDANRGWTANEAMEVLRRTEGLGLSMLEEPCDAAEAMGRRRLVQHSSIPIVGDESVPNLGDVSRELLSGGSNAICIKTARSGFTEAQQILGLCEGLGVDVTMGNQIDTQVGSLATVTFGAAFEASSRRAGELSNYLDMTDDLLAEPLEITDGAIRVRKAPGVGAAIDADKLQKY”, the “soluble on expression in E. coli” value is “not soluble”.

Turning to “MGTTLEVLRTGPLALVEDLGRPGLAHMGVTRSGAADRRSHTLANRLVANPGESATIEVTFGGFSARVCGGDVAIAVTGADTDPAVNGIPFGTNSIHHVHDGQVISLGAPHSGLRSYLAVRGGIDVTPVLGSRSYDVMSAIGPSPLRPGDVLPVGEHTDEFPELDQAPVAAIAEDVVELQVVPGPRDDWFVDPDILVRTNWLVTNRSDRVGMRLVGMPLEYRNPDRQLPSEGATRGAIQVPPNGFPVILGPDHPVTGGYPVIGVVTEEDIDKLGQVRPGQTVRLHWAYPRRPFETLESGKETAAAKFERQHMDSSTSAA”, the “soluble on expression in E. coli” value is given as “soluble”.

Turning to “APMKLYGAVMSWNLTRCATALEEAGSDYEIVPINFATAEHKSPEHLVRNPFGQVPALQDGDLYLFESRAICKYAARKNKPELLREGNLEEAAMVDVWIEVEANQYTAALNPILFQVLISPMLGGTTDQKVVDENLEKLKKVLEVYEARLTKCKYLAGDFLSLADLNHVSVTLCLFATPYASVLDAYPHVKAWWSGLMERPSVQKVAALMKPSA”, the “soluble on expression in E. coli” value was “soluble”.

As for “MGSDKIHHHHHHMKNIKIFPKDWLQLHPYKQSTPVDSYYTGIANRIYDIMEKTELVNSFEGEETKQICIRMAAYFEDVISGMGLWRAFILTHKELYGKYLPFYTPDDHYYDDEVNLEDVRFLLWHYTQQYHGYRKGTFVSPDNPANESTGMLIYDLFCKEWTTAPENTRMAKLFALDTRYERQEDYDRLLQWFHYESYILPESARELSDFAHDRWKEQPDLNQEQLNNLLVNSHGMMAYTSKTSLLGLTSPQWLAKILPAEHPDHAVFQNTADESVATLPDDMLEENRQQYETFRKAAGDKLLLYFDKTEDAQTFITETSGLIPAENFHLPEDWQGKKLAIYATPEEGAQVITRDVELIKDENNPFYDANRAAKQALSFFIVKHCSVYFLPELVKRGMLADAQTKSLISPERGKAIIQENWKFLARYFIREYPNR”, the “soluble on expression in E. coli” value is listed as “not soluble”.

On to “MGSDKIHHHHHHMKVFTEKIPNIPWEERPEGYTGPVWRYSKNPIIGRNPVPKGARVFNSAVVPYNGEFVGVFRIDHKNTRPFLHFGRSKDGINWEIEPEEIQWVDVNGEPFQPSYAYDPRVVKIEDTYYITFCTDDHGPTIGVGMTKDFKTFVRLPNAYVPFNRNGVLFPRKINGKYVMLNRPSDNGHTPFGDIFLSESPDMIHWGNHRFVLGRSSYNWWENLKIGAGPYPIETSEGWLLIYHGVTLTCNGYVYSFGAALLDLDDPSKVLYRSRYYLLTPEEEYETVGFVPNVVFPCAALCDADTGRVAIYYGAADTHVALAFGYIDEIVDFVKRNSM”, for which the “soluble on expression in E. coli” value is reported as “soluble”.

As to “MVPRTEIVAIEYGTPIEELKARFIESGISKIIVYKENIDNIIGYIHSSEMFREQTDWTKSVRQLPIAPETMGAHKLMKLFMQQKKSLAVVVDEFGGTSGIVALEDLVEEIFGEIEDEHDTTSYIA”, the “soluble on expression in E. coli” value was “not soluble”.

In the case of “IDHIEVLRDGASARYGSDAIAGVINIILKSADHGGSISSKYGQYKKGDGIQRQVSGNTGFALGDNGTLNLSGEGANNDYTNRAGDDLRASSIGSTTYGQQVFRQGEPETHEGKLQYNAEYSFNDAAEFYSFGGYSKRRGETAAFYRPSNASNNIAAIYPNGYLPLIHGTLEDTTFVTGLRGELADDWHYDLSANYGKNSYELRTKTINTSLGLNTPRSFDNGTLTNDQKQLSLDLSREFNATWLPYPVSVAFGAEYLRQGYQIEAGQAESYFQTGSSGLGGFRAADAGSYSRHNFAQYLDVETNLTEKLGVSAAVRHEDYSDFGSNVSGSLSARYDFTP”, the “soluble on expression in E. coli” value is listed as “not soluble”.

“MGSDKIHHHHHHMDILQTANERMEQLAALMNKDIKQKVSADQKVKVGVDLGTSSIVFVVLDEHDVPLFGAFEFADAVRDGLVVNYRESVEVVTRLKERAEKCLGITLTHASGAIPPGTVGNNKKVVANVIESAGMEALYTIDEPTAAAAVLGLQDGAVVDVGGGTTGISVFENGEVIYTADEPTGGTHMTLVLAGYYGVPVEKAEQNKREQKDSSEHFSVMRPVVEKMAEITRVHLEKSPSEPLYIVGGASAYSQFKDTFESYLKTPVFQPNYPQYVTPLGIAMSSGSENL”: the “soluble on expression in E. coli” value is reported as “not soluble”.

On to “MWQRIRLLQTLVSQKGAATAAAGAASSSPTAAAAAATTAAPPSPAPSVAADNERSFLRNLIPMRVYSSGPPSIYLRHAFLNQDRLIRRFLGALEAVPLPSLPRLLLAEGFQRMLEGDVPQRELRELFEDAEVECRKMLLHMDVSKSGHRRYHDSHADPRDQEMWHAVRHDPLRRLLAHELRAACSHYARLMGVSSSPYVPAAVIVRTIIASDVRTDNFLVKMTLAFERHPRNVETGEPVGEAMPPVVEELMKELLLLERDAFGCFRFDPRGDNHHLVHSLKLADITKTPRSFSVMRDPLMKRYGNYCVECEEVHKGRWNQYKVHCGPEDHRIDPALPLFESVVATDPITGGALNMLVHYDEPICLRHKHSLREEKGNFGHTEVFELAMDVTNRTFWERYFLDR”, for which the “soluble on expression in E. coli” value is recorded as “soluble”.

Regarding “RQACYQEIIDTILSKKPHAFESLVVLLLQKMGYGGEIKQSGLVTPYSNDGGIDGIIKEDVLGFGRIHIQAKRYALENSVQRQEIQSFVGALAVAQSNKGVFITTSSFSRGAIQYAVGLNGSTTLILIDGQKLAEYIYEYGVGLQVEHTVEIKKLDSEFWDSMENEAGVPDL”, the “soluble on expression in E. coli” value is “not soluble”.

For the sequence “GHMNMSQSQEIVLQPRSIVVPGELLAEGEFQIPWSPYILKINSKYYSTVVGLFDVKDTQFEVIPLEGSFYYPKINDIVIGLVEDVEIYGWVVDIKAPYKAYLPASNLLGRSINVGEDLRRYLDVGDYVIARIENFDRSIDPVLSVKGKDLGRVSNGIVIDIMPVKVPRVIGKNKSMYETLTSKSGCSIFVANNGRIWATCPSRFSEEILIEAIRKIENESHIKGLTDRIKQFIEEKLGERNASSGETKTNS”, the “soluble on expression in E. coli” value is listed as “soluble”.

Consider “MMINIQEDKLVSAHDAEEILRFFNCHDSALQQEATTLLTQEAHLLDIQAYRAWLEHCVGSEVQYQVISRELRAASERRYKLNEAMNVYNENFQQLKVRVEHQLDPQNWGNSPKLRFTRFITNVQAAMDVNDKELLHIRSNVILHRARRGNQVDVFYAAREDKWKRGEGGVRKLVQRFVDYPERILQTHNLMVFL”, for which the “soluble on expression in E. coli” value was “soluble”.

Turning to “MGSDKIHHHHHHMKYTELLQLQTFFSRFKKIDFIKRINDNILELSFDRERFIFDLTRAMSAIYTAKFNAKNYNAPFDFMLKKYFSNAFIKEVKVLEGNRILCFSVKANKAYKSYESKIYFEFTGKNTNVILTDEKDLIIEALRHIDKSYRVVKPNVILESLKPYKMDENFEEIKDFADYFSRKFTSIYESKIKQIKNLKLAQVDKKIQNLQELFSSLDEENSLLLKALEYRKRADVLFANLSVLKDYEREFKLDDFEGKELEFKLEFNPKQSANLYYKNAKKLEQKAKNLNIQRQNLKEKLDFTLSLKELLLQAKSEIELEILLPKKNSKKNQDHKQEDLVANFYFNEFKICVGKNEKGNEFLLKNAKKDDLWLHVRDIPSAHTLIVSNKQKISLDVIEFAARLCVSFSKLKKGSYWVDYTLKNFVKVQQKAFVNYTNFKSINITKD”, the “soluble on expression in E. coli” value is reported as “not soluble”.

In the case of “MGSDKIHHHHHHMHSLQRKVLRTICPDQKGLIARITNICYKHELNIVQNNEFVDHRTGRFFMRTELEGIFNDSTLLADLDSALPEGSVRELNPAGRRRIVILVTKEAHCLGDLLMKANYGGLDVEIAAVIGNHDTLRSLVERFDIPFELVSHEGLTRNEHDQKMADAIDAYQPDYVVLAKYMRVLTPEFVARFPNKIINIHHSFLPAFIGARPYHQAYERGVKIIGATAHYVNDNLDEGPIIMQDVIHVDHTYTAEDMMRAGRDVEKNVLSRALYKVLAQRVFVYGNRTIIL”, the “soluble on expression in E. coli” value is recorded as “not soluble”.

Regarding “MAHHHHHHMSMNNPAPSPQAPMAAPLDASATVHPRENLAVSAPPGATGAGHNKRLPEELAEFLHTQPPRMETINERKQLFCTRLYMTPPRVLATEGAERRGETLGASLTATGTTSNDSVVGAPLLRSPPPAVLPAAGAPASLKIAKTVPFSEEEHLAWLCAPASPTESRTSAAVPPEAAASSRGLARTERISHAQSEGVRRHEPDRRAVGATATQQPHLSHGASDAHGNDAPARLQGLVAASMATAPNPATPLALQHGEISYKSSFSVLTSWDALMVAPPLLRTTPRMPSLLTQDVENIGTAAMHLNRSTTVTHACASDDVARIPSTGSRAELLIGTSPATEKGEARQEEARADAVLQQPVFPSSCCTRSPTTVPSRLKYDGHGLSPEDSLHQVEEDSARTFVKHFTNGLVFVDPPWFICPVLLDNCEHPYYMTWLDELEVGSVEEAVAETKAKLLTDA”, the “soluble on expression in E. coli” value was “not soluble”.

With “MTLPSSCAPLTGISRARLPAWALPDGWPTQANGEPLLADLAFRDGRIAALTPTDQPTPGLWDLAGALTLPGLVEPHAHLDKTFTIERCRPAQAGLLPAIHAMHEDRRHWSRADIQRRASAALARAAANGVTHLRSHIDWFNADAPDAWQEIARLDTVGITLERVALVPLPLFRELAQAEAIARTVANSGERCLLGGFIHSSNWDATAMENLLYSAARWDLDLDLHIDEELSEVSQGLTWLADHLSRHPFPGHICCSHGCALAAGSDEQAAPILRQLAAHGVTLIALPMTNLLLQDATFGRTPRQRGITLLHEAQAAGVATLLGCDNVQDAFCPAGSYDPLDTLACGLFSAQLSDLFDQQSRLICDRAALTGSPADAAPFAVGAAASVVIFPGSDRFTWPLNSAARLVVNHGRLTHRRVWQEEMAHES”, the “soluble on expression in E. coli” value is reported as “not soluble”.

Turning to “MGSSHHHHHHGGTGENLYFQGGSGSSCRGIVVAGVTNQARTQMAEAFLRAFTGGRVFVCSGGVHHLGTVHPLAVVTMAEMGIDVSRQSSSSLAGVRRQRETYDVYVSVDAPYTERTSDRYQRRYTDTQAAQQSSMGAAGLSAPCASSTSDFCDPLLASATPAHWTVSQDTTDGRQSWTLWSPRNPAIYHERSTRKLQDHLYEGEPLFMRVRPHGLRKACRVQRRWEVPELTQRFALETEAEQKARFVQARDLLGSLALVLVRDLEREYGETMLDEAAVAAYEKVAATEC”, the “soluble on expression in E. coli” value is reported as “not soluble”.
